These results are taken from patent publication EP1652858A1.

The target in assay [1] is HLA-B0801 (human). Briefly: competition vs labelled reference peptide. Conditions: remark: other sources report otherwise.
In assay [2] the target is HLA-B*0702 (human). Kind of assay: competition binding assay, purified HLA, labelled probe peptide.
The target in the next assay is HLA-B0702 (human). Briefly: competition vs labelled reference peptide.
The next assay has as its target HLA-Cw0702 (human). Kind of assay: competition binding assay with labelled reference peptide.
The target of assay [3] is HLA-B*0702 (human). Briefly: competition binding assay against a labelled reference peptide; Ki from IC50. Conditions: remark: other sources report otherwise.
The target in assay [4] is HLA-B0801 (human). Briefly: competition binding assay with labelled reference peptide.
A further assay has as its target HLA-B*3501 (human). Briefly: competition binding assay, purified HLA, labelled probe peptide.
The mark [5] stands for this setting: remark: other sources report otherwise.

Where two headings read alike, the source gives them in different places.

In the assay with HLA-B0801 (human) [1], IPLVGAPL (modifications not checked) came in with an inhibition constant (Ki) of 20 nM. The IC50 with HLA-B*0702 (human) [2] stood at 25 nM.
TPGERPSGM (modifications not checked) had a Ki with HLA-B0702 (human) of 199 nM. In the assay with HLA-B*0702 (human) [2], the concentration for half-maximal inhibition (IC50) worked out at 199 nM.
Regarding ARLIVFPDL (modifications not checked), the Ki with HLA-Cw0702 (human) is 514 nM.
Turning to KPTLHGPTPL (modifications not checked), the Ki with HLA-B0702 (human) (setting [5]) and in the assay with HLA-B*0702 (human) [3] was 6 nM throughout. Also, the concentration for half-maximal inhibition (IC50) with HLA-B*0702 (human) [2] (setting [5]) is 5.8 nM.
On to TIMAKNEVF (modifications not checked), for which, in the assay with HLA-B0801 (human) [4], the Ki came to 6 nM. This lies in the single-digit nanomolar range.
Turning to LPRRGPRLGV (modifications not checked), the Ki with HLA-B0702 (human) (setting [5]) and in the assay with HLA-B*0702 (human) [3] was 3 nM throughout.
YLKGSSGGPL (modifications not checked) displayed an inhibition constant Ki in the assay with HLA-B0801 (human) [4] of 10 nM.
In the assay with HLA-B0801 (human) [1], EARQAIRSL (modifications not checked) came in with a Ki of 9 nM.
Consider APTGSGKST (modifications not checked), for which the Ki with HLA-B0702 (human) stood at 370 nM. In the assay with HLA-B*0702 (human) [2], this molecule came in with a 50% inhibitory concentration (IC50) of 370 nM.
The molecule VRVCEKMAL (modifications not checked) returned a Ki with HLA-Cw0702 (human) of 377 nM.
In the case of LPAILSPGAL (modifications not checked), the half-maximal inhibitory concentration (IC50) with HLA-B*3501 (human) turned out to be 550 nM. This counts as sub-micromolar.
In turn, TYSTYGKFL (modifications not checked) gave a Ki with HLA-Cw0702 (human) of 1020 nM.
For APTLWARMIL (modifications not checked), the Ki with HLA-B0702 (human) (setting [5]) and with HLA-B*0702 (human) [3] was 1 nM in each case.
In the case of QPRGRRQPI (modifications not checked), the Ki with HLA-B0702 (human) (setting [5]) is 1 nM; with HLA-B0801 (human) [4] (setting [5]) it was 3 nM; in the assay with HLA-B*0702 (human) [3] it was 1 nM.
Consider LPRRGPRL (modifications not checked), for which the Ki is 1 nM with HLA-B0702 (human) (setting [5]) and 6 nM in the assay with HLA-B0801 (human) [4] (setting [5]).
For the molecule RTKLKLTPI (modifications not checked), the Ki with HLA-B0801 (human) [4] came to 2 nM. That is a single-digit nanomolar value.
On to APLGGAARAL (modifications not checked), for which the Ki with HLA-B0702 (human) (setting [5]) and with HLA-B*0702 (human) [3] was 1 nM throughout. The molecule also registered an IC50 with HLA-B*0702 (human) [2] (setting [5]) of 0.8 nM.
